This is an account of results in PMC5726764 (Biotechnology and bioengineering, 2017).

Read-outs that look alike come from different tables or passages of the source.

In assay [1] the target is scFv-2 (120_15439_2), de novo designed single-chain antibody. Kind of assay: BLI. (In general: Biolayer interferometry detects binding as a change in optical thickness at a sensor tip.)
Assay [2] has the same target. Put plainly: BLI. The source holds these as a separate data set.
Assay [3] has the same target. Put plainly: BLI. The source holds these as a separate data set.
The target in assay [4] is scFv-1 (120_6290_1), de novo designed single-chain antibody. Kind of assay: BLI.
The target of assay [5] is scFv-2 (120_15439_2), de novo designed single-chain antibody. Put plainly: BLI. The source holds these as a separate data set.
The target of assay [6] is scFv-4 (140_15899_5), de novo designed single-chain antibody. Kind of assay: BLI.
In assay [7] the target is scFv-1 (120_6290_1), de novo designed single-chain antibody. Put plainly: ITC. On the technique in general: In ITC the heat of successive injections is recorded.
Assay [8] deals with scFv-2D10, single-chain antibody of mAb 2D10. Kind of assay: ITC.
Assay [9] deals with T1, dodecapeptide antigen DVFYPYPYASGS (as used in biolayer interferometry) (synthetic peptide).
T1 chain: DVFYPYPYASGS
Kind of assay: BLI.

One may read the Kd as the constant that tells how readily two partners part at equilibrium. A higher Kd goes with a looser complex. By koff is commonly meant a measure of how fast the partners let go of each other. Low readings indicate slow dissociation, high ones fast dissociation. As to DVFYPYPYASGS [dodecapeptide antigen … (as used in biolayer interferometry)], the Kd in [1] worked out at 17.5 nM; in assay [2] it was 2.55 nM; in assay [3] it was 21.5 nM; in assay [4], 8.9 nM; in assay [5], 14.4 nM; in assay [6], 23.8 nM. For the same molecule, the kobs in assay [4] was found to be 0.0033 s⁻¹; in [5] it was 0.0041 s⁻¹; in assay [6], 0.0039 s⁻¹. The results for the koff in [5] and in [6] were 0.00132 s⁻¹ and 0.00171 s⁻¹, respectively.

A word on the stoichiometry N: it is the number of molecules, sites or subunits per partner or assembly. Take DVFYPYPYASGS [dodecapeptide antigen …, not conjugated to BSA (as used in ITC)]: the stoichiometry N in [7] and in [8] was 1 throughout. Also, the Kd in [8] is 1 nM.

B1: scFv-2D10, single-chain antibody of mAb 2D10 (scFv, V domains shown)
VH: EIQLQQSGPELVKPGASVKISCKASGYSFTDYIMLWVKQSHGKSLEWIGNINPYYGSTSYNLKFKGKATLTVDKSSSTAYMQLNSLTSEDSAVYYCARKNYYGSSLDYWGQGTTLTVSS
VL: DVVMTQTPFSLPVSLGDQASISCRSSQSLVHSNGNTYLHWYLQKPGQSPKLLIYKVSNRFSGVPDRFSGSGSGTDFTLKISRVEAEDLGVYFCSQSTHVPYTFGGGTKLEIK
Broadly, the kon is the second-order rate constant of association. Lower therefore signals slow association. Take B1: in [9], the Kd turned out to be 3.8 nM and the kon was 206000 M⁻¹ s⁻¹.
